According to US20080318868A1:

Legend:
[1] = target: CS40 anti-ManLAM monoclonal antibody; experiment: competitive ELISA, ManLAM-coated plate, CS40 (1:2000) mixed with peptide
[2] = target: CS40 anti-ManLAM monoclonal antibody; experiment: competitive ELISA, ManLAM-coated plate, CS40 (1:2000) mixed with peptide; at 50 µg/ml peptide

Binder ISLTEWSMWYRH [B11 synthetic peptide] has a peptide concentration giving 100% decrease in OD [1] of 50 µg/mL and a decrease in OD (inhibition of CS40 binding to ManLAM) [2] of 100%.
